Reference: paper PMC4712673
Read-outs that look alike come from different tables or passages of the source.

Experiments:
Assay in all cases: EMSA
[1] = target: T1, Cus2p WT (Saccharomyces cerevisiae, UniProt P53830 1-285)
T1 sequence: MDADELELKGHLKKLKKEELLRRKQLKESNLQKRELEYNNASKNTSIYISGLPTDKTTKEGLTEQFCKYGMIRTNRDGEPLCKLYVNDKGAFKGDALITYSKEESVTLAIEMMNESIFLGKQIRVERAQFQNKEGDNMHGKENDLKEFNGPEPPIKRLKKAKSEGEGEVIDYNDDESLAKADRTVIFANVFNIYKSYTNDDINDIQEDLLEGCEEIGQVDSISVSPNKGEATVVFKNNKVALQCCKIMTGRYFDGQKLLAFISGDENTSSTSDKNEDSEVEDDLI

[2] = target: T1, Cus2p WT; remark: listed apart in the source
[3] = target: T2, Cus2p Y48D (Saccharomyces cerevisiae, UniProt P53830 1-285, Y48D)
T2 sequence: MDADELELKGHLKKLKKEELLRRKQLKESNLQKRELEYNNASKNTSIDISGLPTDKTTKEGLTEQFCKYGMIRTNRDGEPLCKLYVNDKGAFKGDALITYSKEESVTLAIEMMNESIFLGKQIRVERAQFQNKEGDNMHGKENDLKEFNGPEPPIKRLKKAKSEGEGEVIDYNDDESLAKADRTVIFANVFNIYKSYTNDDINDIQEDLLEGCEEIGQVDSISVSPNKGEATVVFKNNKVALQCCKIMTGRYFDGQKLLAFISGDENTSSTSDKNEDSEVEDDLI

[4] = target: T1, Cus2p WT; remark: listed apart in the source

B1: stem IIa-stabilized U2 core RNA (structured_RNA)
RNA: GUAGUAUCUGUUCUUUGCGGUGUAACAACCGCAAUGACCUCAAUGAGGCUCAUUACCUUUUAAAUACACAUUUUUUGG
binding result [1]: binds

B2: stem IIc-stabilized U2 core RNA (structured_RNA)
RNA: GUAGUAUCUGUUCUUUUCAAUGUAACAACUGAAAUGACCUCAAUGAGGCUCAUUACCUUUUCAGUUGUUACAAUACACAUUUUUUGG
binding result [2]: binds
binding result [3]: binds

B3: G53A U2 core RNA (structured_RNA)
RNA: GUAGUAUCUGUUCUUUUCAAUGUAACAACUGAAAUGACCUCAAUGAGGCUCAUUACCUUUUAAUUUGUUACAAUACACAUUUUUUGG
binding result [4]: binds
